The target of the assay is HLA-A*02:01/HPV16 E7 11-19 (…) peptide-MHC complex on target cells (Human Papilloma virus serotype 16 …). Description: cell-based or functional assay.

B1: A*02:01/HPV16 E711-19 human TCR (fully human constant regions) expressed on transduced T cells (TCR, V domains shown)
V domain 1: GQNIDQPTEMTATEGAIVQINCTYQTSGFNGLFWYQQHAGEAPTFLSYNVLDGLEEKGRFSSFLSRSKGYSYLLLKELQMKDSASYLCASVDGNNRLAFGKGNQVVVIP
V domain 2: DAGVTQSPTHLIKTRGQQVTLRCSPKSGHDTVSWYQQALGQGPQFIFQYYEEEERQRGNFPDRFSGHQFPNYSSELNVNALLLGDSALYLCASSLGWRGGRYNEQFFGPGTRLTVLE
For the molecule B1, the “EC50 of intracellular IFN-γ (ICCS, flow cytometry), CD4+ T cells td with the TCR vector lacking the miRαβ cassette, peptide-loaded T2 target cells” value is approximately 52.4 nM; the “EC50 of intracellular IFN-γ (ICCS, flow cytometry), CD4+ T cells td with the pMP71-miRαβ A*02:01/HPV16 E711-19 fHC TCR vector, peptide-loaded T2 target cells” value is approximately 22.3 nM; the “EC50 of intracellular IFN-γ (ICCS, flow cytometry), CD8+ T cells td with the TCR vector lacking the miRαβ cassette, peptide-loaded T2 target cells” value was approximately 6.4 nM; the “EC50 of intracellular IFN-γ (ICCS, flow cytometry), CD8+ T cells td with the miRαβ TCR vector (SEQ ID NO: 15), peptide-loaded T2 target cells” value was approximately 3.4 nM.
